B1: Bone morphogenetic protein receptor type-1B (Homo sapiens), O00238 (parent)
chain: MLLRSAGKLNVGTKKEDGESTAPTPRPKVLRCKCHHHCPEDSVNNICSTDGYCFTMIEEDDSGLPVVTSGCLGLEGSDFQCRDTPIPHQRRSIECCTERNECNKDLHPTLPPLKNRDFVDGPIHHRALLISVTVCSLLLVLIILFCYFRYKRQETRPRYSIGLEQDETYIPPGESLRDLIEQSQSSGSGSGLPLLVQRTIAKQIQMVKQIGKGRYGEVWMGKWRGEKVAVKVFFTTEEASWFRETEIYQTVLMRHENILGFIAADIKGTGSWTQLYLITDYHENGSLYDYLKSTTLDAKSMLKLAYSSVSGLCHLHTEIFSTQGKPAIAHRDLKSKNILVKKNGTCCIADLGLAVKFISDTNEVDIPPNTRVGTKRYMPPEVLDESLNRNHFQSYIMADMYSFGLILWEVARRCVSGGIVEEYQLPYHDLVPSDPSYEDMREIVCIKKLRPSFPNRWSSDECLRQMGKLMTECWAHNPASRLTALRVKKTLAKMSESQDIKL
partner: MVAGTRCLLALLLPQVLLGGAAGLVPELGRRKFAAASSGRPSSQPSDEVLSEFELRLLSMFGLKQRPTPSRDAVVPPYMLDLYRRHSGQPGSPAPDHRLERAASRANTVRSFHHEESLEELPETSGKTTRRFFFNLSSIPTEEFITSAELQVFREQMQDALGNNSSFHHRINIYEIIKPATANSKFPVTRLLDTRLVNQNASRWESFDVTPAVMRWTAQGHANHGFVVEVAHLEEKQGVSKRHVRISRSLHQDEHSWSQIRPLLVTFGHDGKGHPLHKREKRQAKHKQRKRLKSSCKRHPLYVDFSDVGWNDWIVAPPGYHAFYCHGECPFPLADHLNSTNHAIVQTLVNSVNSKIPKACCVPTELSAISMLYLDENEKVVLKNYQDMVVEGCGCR

Variants of: B1
Conditions: with bmp2_human BMP2, P12643

Variant | effect of a mutation on the interaction
H36G | decreasing interaction
H35S | decreasing interaction

Variants of: B1
Conditions: with bmp2_human BMP2, P12643
Remark: another data set of the same source

Variant | effect of a mutation on the interaction
Q80A | decreasing interaction

— IntAct's records for PubMed 19229295
